These results are taken from PMC5711931.

Test [1] has as its target F-actin of the thin filaments in ghost muscle fibres (rabbit psoas) (rabbit (endogenous in m. psoas fibres)) (UniProt P68135). Description: incorporation into ghost muscle fibres, washing, SDS-PAGE; ghost fibres with thin filaments reconstructed with Tpm and TN, decorated with S1; presence of AMPPNP (16 mM AMPPNP, 8 mM MgCl2).
The target is the same in test [2]. Description: incorporation into ghost muscle fibres, washing, SDS-PAGE; ghost fibres with thin filaments reconstructed with Tpm and TN, decorated with S1; absence of nucleotide.
Test [3] has the same target. Description: incorporation into ghost muscle fibres, washing, SDS-PAGE; ghost fibres with thin filaments reconstructed with Tpm and TN, decorated with S1; presence of ATP (5 mM ATP, 18 mM MgCl2, creatine phosphate and creatine kinase).
Test [4] shares this target. The experiment in a line: incorporation into ghost muscle fibres, washing, SDS-PAGE; ghost fibres with thin filaments reconstructed with Tpm and TN, decorated with S1; presence of ADP (2.5 mM ADP, 3 mM MgCl2).
For test [5] the target is unchanged.
Test [6] has the same target. The experiment in a line: fluorescence intensity of the labelled protein in ghost muscle fibres (polarized fluorimeter); AF-Tpm-TN incorporated into the actin filaments of ghost fibres; Isum of the four polarized intensity components, n = 25; excitation 436 ± 5 nm, emission 500-600 nm.
Test [7] shares this target. The experiment in a line: incorporation into ghost muscle fibres, washing, SDS-PAGE with densitometry; single rabbit psoas ghost fibres incubated with Tpm and TN in 50 mM KCl, 3 mM MgCl2, 1 mM DTT, 6.7 mM K, Na phosphate buffer, pH 7.0; unbound Tpm and TN washed out for 15 min; 8-10 fibres per gel lane, 12% SDS-PAGE, ImageJ.

Chain of myosin subfragment-1 from rabbit fast skeletal muscle myosin (domain or fragment) (Q28641 whole entry, the tested form may be a part): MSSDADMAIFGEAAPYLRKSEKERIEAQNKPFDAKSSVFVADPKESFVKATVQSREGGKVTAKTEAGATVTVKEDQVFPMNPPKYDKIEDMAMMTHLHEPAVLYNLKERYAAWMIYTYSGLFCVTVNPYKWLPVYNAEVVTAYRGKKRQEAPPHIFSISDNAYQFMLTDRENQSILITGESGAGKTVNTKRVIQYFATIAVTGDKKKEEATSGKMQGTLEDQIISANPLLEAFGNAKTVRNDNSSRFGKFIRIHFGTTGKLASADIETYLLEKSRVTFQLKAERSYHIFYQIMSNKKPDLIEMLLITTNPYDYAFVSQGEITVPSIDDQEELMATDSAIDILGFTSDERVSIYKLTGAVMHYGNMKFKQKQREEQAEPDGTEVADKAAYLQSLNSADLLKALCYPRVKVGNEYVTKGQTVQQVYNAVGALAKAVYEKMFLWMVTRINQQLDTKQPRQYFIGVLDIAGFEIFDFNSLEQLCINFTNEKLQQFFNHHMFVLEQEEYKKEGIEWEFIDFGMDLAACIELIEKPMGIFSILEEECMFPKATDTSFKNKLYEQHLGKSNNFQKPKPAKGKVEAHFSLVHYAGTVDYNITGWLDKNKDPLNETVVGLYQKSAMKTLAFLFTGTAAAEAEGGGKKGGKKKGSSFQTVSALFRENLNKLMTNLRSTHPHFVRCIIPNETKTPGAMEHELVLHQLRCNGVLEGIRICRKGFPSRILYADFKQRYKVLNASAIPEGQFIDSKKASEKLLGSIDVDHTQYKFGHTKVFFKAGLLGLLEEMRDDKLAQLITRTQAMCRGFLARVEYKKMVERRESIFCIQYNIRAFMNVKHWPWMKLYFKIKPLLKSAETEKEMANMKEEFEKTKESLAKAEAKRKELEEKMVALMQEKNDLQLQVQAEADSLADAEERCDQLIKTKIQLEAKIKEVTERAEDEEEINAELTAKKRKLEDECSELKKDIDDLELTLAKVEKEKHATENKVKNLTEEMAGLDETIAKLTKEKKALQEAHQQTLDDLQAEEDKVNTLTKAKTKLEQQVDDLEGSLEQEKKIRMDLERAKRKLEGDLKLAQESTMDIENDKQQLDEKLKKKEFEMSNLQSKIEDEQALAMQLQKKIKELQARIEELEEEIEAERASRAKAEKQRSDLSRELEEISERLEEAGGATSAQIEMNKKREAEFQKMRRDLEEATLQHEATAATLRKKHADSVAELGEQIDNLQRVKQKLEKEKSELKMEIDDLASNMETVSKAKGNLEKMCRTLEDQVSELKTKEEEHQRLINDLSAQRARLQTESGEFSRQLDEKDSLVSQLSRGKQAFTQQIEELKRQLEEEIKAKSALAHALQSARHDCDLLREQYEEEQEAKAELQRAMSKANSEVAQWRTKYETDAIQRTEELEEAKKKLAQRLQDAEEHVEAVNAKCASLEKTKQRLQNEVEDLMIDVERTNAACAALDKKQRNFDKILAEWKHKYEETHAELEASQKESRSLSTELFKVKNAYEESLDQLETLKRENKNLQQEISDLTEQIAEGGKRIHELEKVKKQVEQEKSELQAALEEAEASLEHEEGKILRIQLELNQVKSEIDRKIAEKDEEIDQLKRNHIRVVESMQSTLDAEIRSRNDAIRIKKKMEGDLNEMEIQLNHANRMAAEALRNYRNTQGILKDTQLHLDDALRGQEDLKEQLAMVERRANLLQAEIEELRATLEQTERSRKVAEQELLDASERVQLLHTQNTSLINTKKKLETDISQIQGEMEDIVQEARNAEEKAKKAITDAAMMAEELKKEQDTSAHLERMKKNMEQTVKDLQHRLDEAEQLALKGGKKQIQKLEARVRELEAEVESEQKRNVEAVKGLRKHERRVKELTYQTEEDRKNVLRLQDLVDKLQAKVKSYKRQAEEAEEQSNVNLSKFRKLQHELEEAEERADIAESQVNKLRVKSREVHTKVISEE

Turning to “myosin subfragment-1 from rabbit fast skeletal muscle myosin (domain or fragment)”, the molar ratio of S1 to actin (1:x, value is x) (mol actin per mol S1) in test [1] was 8; in test [2], 5; in test [3], 14; in test [4] it was 5. Besides, the ΦE of the polarized fluorescence of AEDANS-S1 in ghost fibres containing ΔE139Tpm against fibres containing WTTpm; TN, high Ca2+, no nucleotide in test [5] came to 0.4 °.

Take “recombinant tropomyosin Tpm2.2 with the E139 deletion labelled with 5-IAF (natural protein)”: the fluorescence intensity Isum of the bound labelled Tpm in test [6] was determined as 266.

Regarding “recombinant tropomyosin Tpm2.2 with the E139 deletion, ββ-homodimer (natural protein)”, the amount bound, percent of the amount of WTTpm in test [7] was 85%.

“recombinant wild-type tropomyosin Tpm2.2 labelled with 5-IAF (natural protein)”: the fluorescence intensity Isum of the bound labelled Tpm in test [6] came to 236.
